From patent US20220249633A1

These binders were tested against HLA-A*24 (human) (assay: UV-exchange ELISA, exchange yield grade).

Peptide exchange yield, > 75%:
VFIAQGYTL [… (SEQ ID NO: 379)]
VFIDHPVHL [… (SEQ ID NO: 365)]
VYTGIDHHW [… (SEQ ID NO: 380)]

Peptide exchange yield, 20 to 49%:
LYQDHMQYI [… (SEQ ID NO: 367)]
VFLPRVTEL [… (SEQ ID NO: 374)]
AYSHLRYVF [… (SEQ ID NO: 371)]

Peptide exchange yield, 50 to 75%:
QYLELAHSL [… (SEQ ID NO: 366)]
RYKPGEPITF [… (SEQ ID NO: 383)]
KYTEKLEEI [… (SEQ ID NO: 387)]
QYIEELQKF [… (SEQ ID NO: 385)]
RYFDVGLHNF [… (SEQ ID NO: 384)]
VYTHEVVTL [… (SEQ ID NO: 369)]
QYTPHSHQF [… (SEQ ID NO: 377)]
VYTPVASRQSL [… (SEQ ID NO: 376)]
GYISNGELF [… (SEQ ID NO: 373)]
VYIAELEKI [… (SEQ ID NO: 378)]
IYGEKTYAF [… (SEQ ID NO: 388)]
AYLPPLQQVF [… (SEQ ID NO: 382)]
KYPASSSVF [… (SEQ ID NO: 381)]
VYVIEPHSMEF [… (SEQ ID NO: 372)]
RFIGIPNQF [… (SEQ ID NO: 370)]
TFSDVEAHF [… (SEQ ID NO: 386)]
KYTDYILKI [… (SEQ ID NO: 375)]
KYQNVKHNL [… (SEQ ID NO: 368)]
KYLNENQLSQL [… (SEQ ID NO: 364)]
